Data on 33 sequences can be found in the NTF2 design screens of Basanta et al. (2020).

This series is described as follows: protease stability score; higher = more stable; yeast display proteolysis, trypsin and chymotrypsin.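 Further: relative to predicted unfolded state with 0 unfolded-like and 1 meaning tenfold more protease.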
Sequence “DEEEELMHRLVELFLKALITGDEETLSHLADPNVRLHIDGRHIHGWQFSVKEWLRESSEIRMELQIRHIHLIGDKVHVHGQLSIHQGNKHIHREVIYDFVIINGRLKSITVEIT” came in with a protease stability score of 1.99.

In turn, “SEEERDAHEAWRLILETNLTGDEDFSANLMDPDVRITINGRHLHGRELVLRFLNEWRIEFHRVEIKDYEVQGDYVIIIGHMDGILKVDGKEIRFTSDVSIISVKVNGRWLIREIHIK” showed a protease stability score of 2.7. To “DEDEELVKKFFKEHSESNRTGDWHTIMKQADPNARIFINGVILHGRELFTEHMMRMVRRADHFHFHLEDMRVINGRAELDVHVHLNINGKIDNVETHFIVIKINGRWRLEESRFH” belongs 0.661. On to “DEDRKHIHHMFELWVHFLHTGNEHQLINLVDPHVKLEIGDKHHHGWEQLETFERAFKKEFKHMKIRFELTDIRLINGRMEIDGRDHLHIGDKTIERHLHLVVTKVDGRWQIHSVIVD”, for which the protease stability score amounted to 1.48. As for “DEVERHLKEIFKDLERALNTGDEDRFEHLMDPHARYDVNGVEFIGMRWFRKLVKEIRIRHVDMRLEDVRHVGDFVKMITRIHIEVDINGKNDERETRTILIMHKIDGRWEIKEVIFL”, the figure is 1.38; as for “SEEEETLEELTRRLLHTWVTGDEQTLKDLADPDVRLIFNGQTYHGREQAERIIKELLDKLGVDRVHSEPRRFNIINGRIRMHVRIHYGDKEYIVHIIATKIDGRWTIKNVIFD”, 1.24. As for “SEEHKQIEEFLTRFYRFKKTGDEKMLSRMADPNYKMDIDGQDVHGREEYEEASRRFDHIHHIKLRQFERQGNKVYLDIEVDGEVNGRQTKHTSTLILLKIDGRWYIEHVHWE”, the figure is 0.722.

“EEDRNDVEDFLRMFRTALTTGDEHILEHLADPNTRVDINGKEWHGWHHVSELHKKHLEDLGADHVEFRVHDFRIIGNKVHVDSRLIEHQGDKILIINTIIIQLKINGRWVIHELRFR” registered a protease stability score of 0.988. In the case of “DEDEHARKFVLDRLQHAWETGDEETMEKLMDPNAKLHVNGQDFHGRDTWHKLLHDELRDMGIKHFEFELKSFESQGNKLIIDGLEISEFNGREFRHRVTLIVDKFNGRWVVQSVEIR”, the protease stability score came out at 1.29. As for “DEEDELLMKVLTEWFHALRTGDEEKLDELADPNVRIEIGDKELHGMEVWQEYLRRYDHDRQDKVHFRTHEKQGNKLILDVEEDVVIEVNGKRIRTHVRSEIILVKINGRWVFTSIIVH”, the figure is 1.34. As for “SEEEELAERFYEKFLRLARTGDEDELKRLFDPHVRHYVDGRELIGRELLVKFLIEWRVHDSEIREVRIQGDKLWFNTVIHGNFNGVETKQEMEVRSRKIDGQWFATEVQIK”, the figure is 0.694. For the sequence “DEKEELTRKLLELLLLAWSTGDEEVLMMLADPDVRITQGDKITHGRDELRREIEEIWRKFGADHIEVEPEDSRVQGDKVNNRTTLWLRINGRTIDFNVHVIIVIVNGVIHSMRFEIR”, the protease stability score came out at 2.35.

In turn, “DDSDEHTKRATDELRHNLRTGDEERILKLVDPNARIDINGVKVIGWHMVEELVRKFWEEMRVEELEIHDMKVYGDKAIVDGYVEQRQGNKFIYIKTEIIKVKIDGRWILTELRFR” returned a protease stability score of 0.57. As to “SESHHLAKHVVHLFMHAVSTGDEKLLRELLDPDVRVDINGVELIGMEDFQKWLHEWREHMHDSKVHRVRDYNGVLESDVKVRRVLIVDGVRLEEETHSEVIIVKINGRWHVKHVRYR”, the protease stability score stood at 1.26. As for “SEKEKLYKDMFRLWAENHRTGNEKKLLEMADPNAQFIFNGREFHGRELIKEEIDEWINRIKNVRVDIHRVEIQGEKIHVITRLHINGQDLETKVELIIVDGQLHLERIHID”, the figure is 0.759; as for “SEDEKIAEHLMHEISRSTQTGDEEMSRRLMDPNVRIDINGKQIHGWETWQKEVERVDHSHSRFQLRDVRSQGNYLDARGEFHLDLHINGRTVHIVYDVTFIILKIDGRWFLHSIKVR”, 0.519.

Regarding “DDDHLRKVEDFMRAQLEGDPDRLKQLADPNVRMNVGEKKVHGMQDIATEQASTYKTARYEIKSLDSKTEGDKVVITMRVQADNNGQPHDETFHLKARLENGKIVEQSKENDG”, the protease stability score is -0.531. As for “AEQHEQAREFLRNWLEAYHTGDEDLLRSMFDPNVRLHVDGRVIIGREDIIRERLHFLENHGITFHFRIQDMSVQGEKVIFDVEFHYRYNGQDYHKKVWLFVEKINGRWFMTQININ”, the figure is 2.19; as for “SEKEEELHRALRLWLHAWETGDFHTITKLLDPHARSDVNGVELHGREEISRHHRELRTHDMRIRDEKVHMQGDYLIIILHIHTDVQIGDKRIETDLLIIIIHVKVNGRWSLRSISLEFR”, 0.035. To “DEEDDEAREVHERLVRAFKTGNEELLLKMADPNTRDLFVVDGRTIHLVGWEHWRISLHELRIHDQRIRRSHVIDGRVHSDWEIDVEFNGRRSRKKLEIRIEVVNGVTKSVEFIFR” belongs 1.31; to “DSEHEEAKTFVKELDKSIETGDEEKLKELLDPHTLIIVGDKFRIGWEWMANKISQIRIHMETRIRDVEHQGDKMIVHTDVRIDINVDGKKIHEQRDIHLIIRKVNGQWILKEIEIR”, 1.36; to “DEQEEFSHRIMRLLIDLWHTGDWTLIEQYLDPNVRFEVGDKRHHGRESAVKALLELHRRLGVKHFDVKDKDQQGEKLVVVLEDRAENHHMEHELIVVKIDGRWTNHSIISRIH”, 1.01.

“SEEEHEEREAIEQLTRSLTTGDEHMMTNNMDPNVRIHIDGRDLVGREEAIKWLQEIHKKYKNIKYEIKRIDSFNGRLIVDGRVEYNGRRVDMHLIALKFDGRWLIEEVRVN” displayed a protease stability score of 2.26. The sequence “SEEQEITEHFSHLWLEWYLTGDFHKMLKFADPNTKMHIGDKHDHGMERYQEYERRFLEQYKGAKIYIKTVEHYDGRVVIDNIFRFDGREYQLIIEIIVVDGRLKSVHSDMK” registered a protease stability score of 1.25. “TEDEEAFKENIRILLELTKTGDFKEMSKLLDPHVRIIINGKLFVGMEHADRLVRERNEEWRIESLEVEHLQSVDGQIHADTKMHVNINGVHRIHDTHQIVLKVNGRWFMEQIEIR” showed a protease stability score of 1.01. “DERDESLKNIFELLERILETGDEDDSSKLADPHTRMHWNGKELHGRELYADLFDRLLRELGVDHVRLKIHEVRIQGDKIRMDGTLHLIQGDKEERRRVHLVAHKINGRWHIKQVSIN” registered a protease stability score of 1.26.

Sequence “SELEHVEEKLLRDLVNAIKTGDEEFFNRLLDPDDRLHEKQGDKTIDFIGREEWKRFLSQIKNLKVEFRDVDLWNGRIHMRVVIIINGREHDLELEYVIVNGRFKQFHVRIR” came in with a protease stability score of 2.2. As for “SEDEQLRYELAELFFHLISTGDEETIRHYFDPHVLVMIFVNGRNIENHGWEEMTRSLRELRIKDSRLKRVDVYGDYARMDIRVDGEINGVRRDTEVEIRIKWVNGRWKSVNIHIH”, the figure is 2.14; as for “DEERQRAHKWMHDWIKAYLTGDEEHQNQMLDPNMRIEYGDKTHHGRDILIEIFREELRQVDHIEIRIRHIDNFEGRVRTDGELHVKINGRREHYDIILEYDVVNGKLKIERWDIR”, 1.45; as for “DEEKDIIERMSKMITRSWETGNEDWLSELADPDVKFHINGRDHHGMEEMARLWLELVLKLGVKHQTIEHLSIQGDKVHIHSRSDFNGRHMKLEIRVLLVNGKIRSVTVHLHVD”, 0.633. As for “SEDHEAFDSMIQSWLDVYLTGDEDIMLELFDPRMRVDINGKDIHGMHHYTDLLHKVRRERGFEEHLRIEDSKVINGKAEFHTHVHIRQGDKNMEFEVTIVVLKINGKWWIKHIEIT”, the figure is 0.922; as for “SEDERWLELLSRLLIEATRTGDWRELRHMLDPNVQLSFDGVQLHGRETIIEFLRHEERRLGVKHIDLHDRRIEYFDGRVILESELIIHYGDKEHRSEVRVYANKVNGRWFIEHIEIG”, 2.13; as for “DELQRDSEEAFELVLRVLRTGDEETMSRLADPHTRINVHQGDKIVEFHGREDFERFMHDLLRKFPNMRIDAERVHTFNGQVVINHRLHVNGQERDLHIFSLKIDGRWHLKHVELKLK”, 1.73.
